Key:
[1] = molecular target: light-dependent protochlorophyllide oxidoreductase of Thermosynechococcus elongatus BP-1 (TeLPOR) (Thermosynechococcus elongatus BP-1) (UniProt Q8DLC1); assay: SAXS; ESRF BM29, 10 °C, 20 mM Tris/HCl pH 7.5, 500 mM NaCl, 20% (v/v) glycerol; apoprotein (no NADPH, no Pchlide), concentration series, apo 2 dataset merged from low and high concentration; dimer content assuming only monomers and dimers
[2] = molecular target: light-dependent protochlorophyllide oxidoreductase of Thermosynechococcus elongatus BP-1 (TeLPOR) (Thermosynechococcus elongatus BP-1) (UniProt Q8DLC1); assay: AUC; sedimentation velocity with multiwavelength absorbance optics (MWA-AUC), 20 °C, 50 krpm, c(s) model in SEDFIT; apoprotein (no NADPH, no Pchlide), 0.615 mg ml^-1 (1.23 mg ml^-1 diluted to half with reaction buffer)

- dimer content (%) from I(0) (apoprotein, without NADPH and Pchlide) [1]: 0%
- dimer content (%) from Vp (apoprotein, without NADPH and Pchlide) [1]: 1.7%
- percent dimers (apoprotein, without NADPH and Pchlide) [2]: 3.6%
Substance: light-dependent protochlorophyllide oxidoreductase of Thermosynechococcus elongatus BP-1 (TeLPOR) (from UniProt Q8DLC1 1-322) (enzyme)

Source: PMC6761149
